Data as given in CN113735970A (INST MILITARY MEDICINE ACADEMY MILITARY SCIENCES PLA, dated 2021).

Assays:
[1] = target: SARS-CoV-2 WT S-ECD蛋白 (SARS-CoV-2, UniProt P0DTC2 14-1213)
[2] = target: SARS-CoV-2 WT RBD蛋白 (SARS-CoV-2, UniProt P0DTC2 319-541)

B1: 抗SARS-CoV-2全人源单克隆抗体ZWC6 (antibody, human IgG1, kappa, V domains shown)
VH: EVQLVESGGGVVQPGTSLRLSCAASGFSFSHYVMYWVRQAPGKGLDWVAIISFDGSSQYYADSVKGRFTISRDNSKDTLYLQMHSLRPEDTAVYYCAIHGGTYYYDKNILAWGQGTLVTVSS
VL: AIRMTQSPPTLSLSPGERATLSCRASQSVTNYLVWYQQKPGQAPRLLIYDTFNRATGIPARFSGSGSGTDFTLTISSLEPEDFAVYYCQQRSNWPPTFGQGTKVDIKR
For B1, which Kd [1] is on record?
The Kd was 1.49 nM.

What about the koff [1] of the same binder?
The koff was 0.000255 s⁻¹.

And the kon [1]?
The kon was 171000 M⁻¹ s⁻¹.

And the Kd [2]?
The Kd was 0.683 nM.

What about the koff [2] of the same binder?
The koff was 0.000365 s⁻¹.

What about the kon [2] of the same binder?
The kon was 535000 M⁻¹ s⁻¹.
